Experiment [1] has as its target recombinant human FcεRIα (human) (UniProt P12319). Kind of experiment: SPR.
Experiment [2] has as its target recombinant cynomolgus FcεRIα (cynomolgus monkey (Macaca fascicularis)). Put plainly: SPR.

Consider “recombinant cynomolgus IgE Fc (Cε1-4) (domain or fragment)”, for which the Kd was 6.73 pM in experiment [1] and 1.4 nM in experiment [2].

In the case of recombinant human IgE (antibody), the Kd in experiment [1] was 8.39 pM; in experiment [2], 1 nM.

Source of the values: paper PMC11724247.
